The text below walks through data of CN115746140A (SHENZHEN KANGTI BIOMEDICAL TECH CO LTD, dated 2023).

The assay addresses T1, PCSK9蛋白 (Proprotein convertase subtilisin kexin type 9) (UniProt Q8NBP7 31-692, limits assumed).
T1 construct: also called PCSK9抗原
Briefly: SPR; immobilised partner and format not stated. On the technique in general: In SPR one partner is held on a chip, and binding of the other changes the refractive index at the surface.

T1 sequence (Q8NBP7 31-692 limits assumed): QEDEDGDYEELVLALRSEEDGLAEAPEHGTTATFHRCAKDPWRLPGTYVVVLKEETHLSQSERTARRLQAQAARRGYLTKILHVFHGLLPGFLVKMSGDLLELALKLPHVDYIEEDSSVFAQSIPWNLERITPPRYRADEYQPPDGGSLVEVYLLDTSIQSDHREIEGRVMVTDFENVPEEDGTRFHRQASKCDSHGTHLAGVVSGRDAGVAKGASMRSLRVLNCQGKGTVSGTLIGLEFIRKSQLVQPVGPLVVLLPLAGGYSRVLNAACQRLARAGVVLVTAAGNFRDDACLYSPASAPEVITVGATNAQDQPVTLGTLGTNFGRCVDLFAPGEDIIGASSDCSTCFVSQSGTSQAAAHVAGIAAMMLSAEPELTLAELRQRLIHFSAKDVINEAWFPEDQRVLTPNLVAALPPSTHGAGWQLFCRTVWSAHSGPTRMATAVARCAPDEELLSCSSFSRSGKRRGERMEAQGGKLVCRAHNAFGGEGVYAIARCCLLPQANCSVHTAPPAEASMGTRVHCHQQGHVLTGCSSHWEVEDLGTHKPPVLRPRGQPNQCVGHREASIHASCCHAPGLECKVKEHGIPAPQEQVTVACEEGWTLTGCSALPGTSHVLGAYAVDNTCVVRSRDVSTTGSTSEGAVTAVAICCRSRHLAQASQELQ

B1: 纳米抗体P2-11D (anti-PCSK9 nanobody P2-11D) (VHH)
VHH: DVQLQESGGGLVQPGGSLRLSCAASGFTFRAYDMGWYRQAPGKQRDLVAVISSSGGTPNYADSVKDRFTISRDNDKNTVYLQMNSLKSEDTALYYCNARWESSAYERDYWGRGTQVTVSS
notes: Monovalent alpaca VHH, expressed from pET22b in E. coli BL21 and purified on Ni resin and by size exclusion; also called 抗PCSK9单域重链抗体; 抗PCSK9的纳米抗体
The molecule B1 registered a Kd of 70 nM, a koff of 0.00921 s⁻¹ and an association rate constant (kon) of 130000 M⁻¹ s⁻¹.

One may read the Kd as the constant that tells how readily two partners part at equilibrium. Higher therefore signals lower affinity. For orientation: koff means the first-order rate constant of dissociation. Broadly, the kon is a measure of how fast the partners come together. A lower kon goes with slower complex formation.
